Patent publication US20040234990A1, “Method of screening alzheimer's disease-associated gene” (priority 2001, published 2004)

Assays:
A5-9-PS1 cells = test: Puromycin sensitivity of the parent strain; assay type: cell-based, mouse
Text: (§1) The DNA that controls the production of Aβ is investigated as follows. First, the DNA library is transfected to the cell line where the two recombinant gene constructs described above are introduced (hereinafter referred to as the parent strain). Thereafter, for example, when a drug resistant gene is used as the selection marker, a cell bearing the DNA to enhance the concentration of the corresponding drug and become resistant in the presence of the drug even at a high concentration is selected. […]
(§2) The A5-9 cells or A5-9-PS1 cells described in EXAMPLE 4, to which the human hippocampus cDNA library was transfected through the infection with retrovirus, were cultured in the presence of puromycin of a high concentration (A5-9 cells, 25 μg/ml; A5-9-PS1 cells, 9 μg/ml). […] The concentrations of puromycin used were determined based on the respective minimum puromycin concentrations of 20 μg/ml and 5 μg/ml, at which the A5-9 cells and A5-9-PS1 cells as the parent strain were extinct. […] That is, Aβ was detected as follows. The Aβ secreted in a medium by incubation for 3 days (initial cell concentration of 2×10^5 cells/ml, medium of 3 ml) was immunoprecipitated by anti-Aβ monoclonal antibody 6E10 and the deposits were detected by high sensitive western blotting using anti-Aβ antibody. […]

A5-9 cells = test: Puromycin sensitivity of the parent strain; assay type: cell-based, mouse
Text: as §1, §2

[1] = tested on: HEK293 cells where APP and PS1 were overexpressed; test: Aβ secreted into the medium by HEK293 cells transfected with cDNA in pcDNA3, assayed by ELISA; assay type: cell-based; conditions: for Fold increase in Aβ42 versus vector control: rate of increase compared to vector-alone control
Text: From the clones selected in EXAMPLE 5 above to increase the production of Aβ, human hippocampus-derived cDNA was amplified by PCR using virus vector pMX sites as primers (which were identified to be sense strand primer, SEQ ID NO: 16; […] and antisense strand primer, SEQ ID NO: 17; […]). The cDNA obtained was ligated with vector pcDNA3 (Invitrogen, Inc.), which was transfected to 4×10^5 cells of HEK293 cells (Tomita S., et al., J. Biol. Chem. 273: 19304-19310, 1998; Tomita S., et al., J. Biol. Chem. 275: 13056-13060, 2000) where APP and PS1 were overexpressed. One day after, the medium was changed to a new medium followed by incubation for 24 hours. The amount of Aβ selected in the medium was assayed by ELISA (Asami-Odaka, A. et al., 34:10272, 1995). It was found so far that 3 kinds of human hippocampus-derived cDNAs increased the amount of Aβ produced (TABLE 2). One of them was identified to be identical with human cDNA (accession No. AAH06223) registered in Genbank. In the following procedures of the present invention, this cDNA was named gene A (SEQ ID NO: 4) and the protein encoding the cDNA was named Protein A (SEQ ID NO: 1). […] The one found to be a gene to control the production of Aβ was a protein, Herp (Kokame K. et al., J. Biol. Chem. 275: 3286, 2000; accession no. AB034989) (cDNA: SEQ ID NO: 5, protein: SEQ ID NO: 2), which was localized in the endoplasmic reticulum and its expression was induced by endoplasmic reticulum stress but its function was unknown. Further the other one found to be a gene to control the production of Aβ was cDNA (cDNA: SEQ ID NO: 6, protein: SEQ ID NO: 3) containing the 1-389 internal sequence from the N terminus of 5-lipoxygenase (accession no. XM 005818).

[2] = Aβ in medium after 24 hours incubation, mean of 2 samples, vector control value in parenthesis

Molecule | minimum puromycin concentration at which the cells were extinct (A5-9-PS1 cells) | minimum puromycin concentration at which the cells were extinct (A5-9 cells) | Aβ40 Concentration [pM] [1, 2] | Aβ42 Concentration [pM] [1, 2] | Fold increase in Aβ42 versus vector control ([1]; column beside the Aβ40 concentration) | Fold increase in Aβ42 versus vector control ([1]; column beside the Aβ42 concentration)
COc1ccc(C[C@H](N)C(=O)N[C@H]2[C@@H](O)[C@H](n3cnc4c(N(C)C)ncnc43)O[C@@H]2CO)cc1 [puromycin] | 5 µg/mL | 20 µg/mL |  |  |  | 
Protein A: human cDNA (Genbank AAH06223, SEQ ID NO: 4) encoding Protein A (SEQ ID NO: 1), function unknown (nucleic acid, Human) DNA: ATGTCGACGGCGGCGGTTCCGGAGCTGAAGCAGATCAGCCGGGTGGAGGCGATGCGCCTAGGGCCGGGCTGGAGCCACTCGTGCCACGCCATGCTGTACGCCGCCAACCCTGGGCAGCTCTTCGGCCGCATCCCCATGCGCTTCTCGGTGCTGATGCAGATGCGTTTCGACGGGCTGCTGGGCTTCCCCGGGGGCTTCGTGGACCGGCGCTTCTGGTCGCTGGAGGACGGCCTGAACCGGGTGCTGGGCCTGGGCCTGGGCTGCCTGCGCCTCACCGAGGCCGACTACCTGAGCTCGCACCTGACCGAGGGCCCACACCGCGTCGTGGCGCACCTGTACGCGCGGCAGCTGACGCTGGAGCAGCTGCACGCCGTGGAGATCAGCGCGGTGCACTCGCGCGACCACGGCCTGGAGGTGCTGGGCCTCGTGCGGGTCCCGCTGTACACCCAGAAGGACCGAGTCGGAGGCTTCCCCAACTTCCTGAGCAACGCCTTCGTGAGCACGGCTAAGTGCCAGCTCCTCTTTGCCCTCAAGGTGCTCAACATGATGCCCGAGGAGAAGCTGGTTGAGGCCCTGGCTGCAGCCACCGAGAAGCAGAAGAAGGCCCTGGAGAAGTTGCTCCCGGCCTCCTCT |  |  | 378 ± 10 (232 ± 34) pM | 88 ± 22 (45 ± 2) pM | 1.6 | 2.0
